According to KR20200019669A (dated 2020):

Biological target: T1, his 태그가 부착된 재조합 인간 CD38 (recombinant human CD38 extracellular domain, His-tagged) (human, UniProt P28907 43-300, biotinylated in part of the ForteBio assays (EZ-Link sulfo-NHS biotinylation))
T1 construct: Bought from Sino Biological; also called rhCD38; rhCD38-his; not shown: histidine tag
T1 sequence: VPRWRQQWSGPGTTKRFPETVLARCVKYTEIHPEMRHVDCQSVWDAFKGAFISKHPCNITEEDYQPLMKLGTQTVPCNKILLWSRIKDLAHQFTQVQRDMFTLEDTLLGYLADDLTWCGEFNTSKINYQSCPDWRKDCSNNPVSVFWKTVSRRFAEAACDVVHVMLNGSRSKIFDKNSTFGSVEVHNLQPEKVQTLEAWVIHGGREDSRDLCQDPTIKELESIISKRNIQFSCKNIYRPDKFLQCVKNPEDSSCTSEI
Experiment: affinity on recombinant human CD38 extracellular domain (Octet/Biacore); order of magnitude told in text

B1: aCD38-b-329 (antibody, human IgG1, V domains shown)
VH: QLQLQESGPGLVKPSETLSLTCTVSGGSISSSDYYWGWIRQPPGKGLEWIGSIYYSGSTYYNPSLKSRVTISVDTSKNQFSLKLSSVTAADTAVYYCARGQYSSGWYAYPFDMWGQGTMVTVSS
VL: EIVLTQSPGTLSLSPGERATLSCRASQSVRSSYLAWYQQKPGQAPRLLIYGASSRATGIPDRFSGSGSGTDFTLTISRLEPEDFAVYYCQQDGAVFTFGGGTKVEIK
notes: Human IgG1 with kappa constant region (P01857, P01834)
- Kd: ~1 nM
